# According to paper PMC3399738:
# B1: polyT(30) 3' biotin (ssDNA)
# DNA: TTTTTTTTTTTTTTTTTTTTTTTTTTTTTT
# B2: dT30/dA30 duplex (dsDNA)
# DNA 1: B1 DNA
# DNA 2: AAAAAAAAAAAAAAAAAAAAAAAAAAAAAA
# B3: polyT(30) 5' IRDye-700 (ssDNA)
# DNA: B1 DNA
# Assays:
# [1] = target: T1, RPA (human heterotrimer) (human, UniProt P27694;P15927;P35244 1-616;1-270;1-121); assay: pull-down
# [2] = target: SSB (Escherichia coli, UniProt P0AGE0 1-178); assay: pull-down
# [3] = target: T1, RPA (human heterotrimer); assay: EMSA
# [4] = target: T1, RPA (human heterotrimer); assay: EMSA; remark: listed apart in the source
# T1 sequence (P27694 whole entry, chain 1 of 3): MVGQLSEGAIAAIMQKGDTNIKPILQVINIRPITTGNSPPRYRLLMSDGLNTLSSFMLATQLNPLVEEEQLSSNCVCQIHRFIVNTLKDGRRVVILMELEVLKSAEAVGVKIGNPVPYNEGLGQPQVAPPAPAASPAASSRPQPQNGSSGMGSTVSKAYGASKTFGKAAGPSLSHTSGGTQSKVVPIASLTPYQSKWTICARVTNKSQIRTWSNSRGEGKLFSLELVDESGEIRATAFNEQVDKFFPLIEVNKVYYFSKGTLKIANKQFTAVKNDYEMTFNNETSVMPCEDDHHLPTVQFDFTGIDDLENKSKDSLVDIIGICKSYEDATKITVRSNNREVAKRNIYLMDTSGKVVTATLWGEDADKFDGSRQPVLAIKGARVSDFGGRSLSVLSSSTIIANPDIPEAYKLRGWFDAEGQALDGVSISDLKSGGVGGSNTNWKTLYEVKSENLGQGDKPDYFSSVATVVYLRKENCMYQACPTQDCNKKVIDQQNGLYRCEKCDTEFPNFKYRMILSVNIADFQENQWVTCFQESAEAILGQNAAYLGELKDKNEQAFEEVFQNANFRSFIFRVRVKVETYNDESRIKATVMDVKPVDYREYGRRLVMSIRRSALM
# T1 sequence (P15927 whole entry, chain 2 of 3): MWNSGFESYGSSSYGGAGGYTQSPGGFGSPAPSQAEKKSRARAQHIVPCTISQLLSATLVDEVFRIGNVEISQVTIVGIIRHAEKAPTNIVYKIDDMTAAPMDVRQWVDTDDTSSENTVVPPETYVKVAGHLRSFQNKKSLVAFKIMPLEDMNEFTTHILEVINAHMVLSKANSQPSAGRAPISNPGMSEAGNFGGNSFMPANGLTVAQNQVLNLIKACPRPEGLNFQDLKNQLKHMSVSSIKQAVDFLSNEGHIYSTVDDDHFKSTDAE
# T1 sequence (P35244 whole entry, chain 3 of 3): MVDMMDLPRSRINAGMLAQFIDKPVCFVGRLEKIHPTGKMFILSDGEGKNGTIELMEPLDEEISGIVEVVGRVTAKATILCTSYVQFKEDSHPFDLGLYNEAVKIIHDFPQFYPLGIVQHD
# SSB, sequence (P0AGE0 whole entry): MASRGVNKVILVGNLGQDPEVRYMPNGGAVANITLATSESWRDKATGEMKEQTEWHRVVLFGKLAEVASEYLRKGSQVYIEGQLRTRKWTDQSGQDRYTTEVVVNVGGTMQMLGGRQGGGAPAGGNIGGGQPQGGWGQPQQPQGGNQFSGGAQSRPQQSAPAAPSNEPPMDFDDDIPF
binder,measurement,setting,value
B1,binding result,[1],binds
same,binding result,[2],binds
B2,binding result,[3],binds
B3,binding result,[4],binds
